This assay concerns the target polyhistidine-tagged human FcRn (human) (UniProt P55899). In words: AlphaScreen competition, pH 6.0, against biotinylated human IgG1 mAb CNTO 6234 on polyHis human FcRn.

polyhistidine-tagged human FcRn (human), sequence (P55899 24-297 limits assumed, chain 1 of 2): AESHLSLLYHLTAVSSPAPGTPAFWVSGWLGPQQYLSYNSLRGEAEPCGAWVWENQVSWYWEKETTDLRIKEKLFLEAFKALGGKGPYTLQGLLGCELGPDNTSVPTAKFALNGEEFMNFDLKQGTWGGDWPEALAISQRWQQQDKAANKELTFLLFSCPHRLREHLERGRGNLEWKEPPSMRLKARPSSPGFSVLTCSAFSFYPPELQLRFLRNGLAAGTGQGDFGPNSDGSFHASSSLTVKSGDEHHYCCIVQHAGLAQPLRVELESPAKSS
polyhistidine-tagged human FcRn (human), sequence (P61769 21-119 limits assumed, chain 2 of 2, further chain): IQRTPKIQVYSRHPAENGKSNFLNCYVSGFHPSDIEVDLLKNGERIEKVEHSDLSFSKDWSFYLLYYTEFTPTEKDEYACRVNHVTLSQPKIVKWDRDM

In the case of “CNTO 5303 (CNTO 530 T359N/N361T) (from UniProt P01861 116-325) (Fc fusion)”, the fold change of KD against CNTO 530 came out at 2 fold.

Source of the values: patent US20120276092A1.
